# T1: sp2 isoform of human CD123 ECD with C-terminal 8xHis tag (crystallography) (human, UniProt P26951 101-303)
# T1 construct: expressed in baculovirus-infected insect cells; also called CD123 sp2; CD123 SP2 ECD
# T1 sequence: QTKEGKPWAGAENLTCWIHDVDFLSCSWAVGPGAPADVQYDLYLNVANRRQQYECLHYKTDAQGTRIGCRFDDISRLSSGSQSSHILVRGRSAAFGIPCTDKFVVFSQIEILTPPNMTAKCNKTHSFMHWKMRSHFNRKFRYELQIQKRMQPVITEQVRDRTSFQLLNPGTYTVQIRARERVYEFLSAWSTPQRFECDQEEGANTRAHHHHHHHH
# B1: single-chain Fv fragment of anti-CD123 mAb I3RB18 (scFv)
# scFv: EIVLTQSPGTLSLSPGERATLSCRASQSVSSSYLAWYQQKPGQAPRLLIYGASSRATGIPDRFSGSGSGTDFTLTISRLEPEDFAVYYCQQDYGFPWTFGQGTKVEIKGGGGSGGGGSGGGGSGGGGSEVQLVQSGAEVKKPGESLKISCKGSGYSFTSYWISWVRQMPGKGLEWMGIIDPSDSDTRYSPSFQGQVTISADKSISTAYLQWSSLKASDTAMYYCARGDGSTDLDYWGQGTLVTVSSGHHHHHH
# notes: form VL-(Gly4Ser)4-VH-Gly-His6, expressed in HEK293 Expi cells; also called I3RB18 scFv; I3RB18 derived scFv
# Target: T1, sp2 isoform of human CD123 ECD with …
# Test: size-exclusion chromatography of the mixed proteins
# Procedure: The protein was concentrated to 18 mg/mL in 20 mM HEPES, pH 7.5, 100 mM NaCl.
binder,measurement,value
B1,binding result,binds

# Reference: patent publication US20160068605A1 (Janssen / Centocor, published 2016)
